Literature values in paper PMC12990809.

How the values were obtained:
Assay in all cases: pulldown
Details in all cases: 20 nM protein, 1.5 uM RNA pool; 20 mM HEPES pH 7.8, 70 mM KCl, 10 mM NaCl, 10% glycerol, 2 mM DTT, 0.1 ug/uL BSA; 30 min, 4 C (protocol of this paper; not …); cited from earlier work
[1] = target: T1, Rbp1 (Drosophila melanogaster) (UniProt Q02427)
T1 sequence: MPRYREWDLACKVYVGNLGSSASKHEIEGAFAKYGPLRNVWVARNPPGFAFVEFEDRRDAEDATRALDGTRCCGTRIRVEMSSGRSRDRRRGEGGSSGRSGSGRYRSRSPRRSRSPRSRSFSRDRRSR

[2] = target: T2, SF1 (Drosophila melanogaster) (UniProt A9UNA1)
T2 sequence: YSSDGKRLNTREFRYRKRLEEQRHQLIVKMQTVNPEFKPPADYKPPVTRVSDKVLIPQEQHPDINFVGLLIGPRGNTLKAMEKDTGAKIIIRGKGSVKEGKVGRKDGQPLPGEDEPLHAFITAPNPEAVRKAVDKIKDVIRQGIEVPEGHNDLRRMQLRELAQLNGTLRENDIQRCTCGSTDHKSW

QKI (Homo sapiens) = target: T3, QKI (Homo sapiens) (UniProt Q96PU8)
T3 sequence: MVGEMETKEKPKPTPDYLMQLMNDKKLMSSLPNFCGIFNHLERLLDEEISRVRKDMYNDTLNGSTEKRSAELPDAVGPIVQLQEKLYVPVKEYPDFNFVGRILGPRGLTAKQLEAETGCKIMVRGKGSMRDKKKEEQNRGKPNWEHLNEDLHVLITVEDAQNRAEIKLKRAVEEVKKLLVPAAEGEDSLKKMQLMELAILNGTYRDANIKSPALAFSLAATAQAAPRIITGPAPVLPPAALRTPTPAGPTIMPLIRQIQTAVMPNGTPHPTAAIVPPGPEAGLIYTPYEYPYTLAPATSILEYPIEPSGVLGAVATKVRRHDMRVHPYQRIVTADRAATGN

[3] = target: T4, CG14718 (Drosophila melanogaster) (UniProt Q7K543)
T4 sequence: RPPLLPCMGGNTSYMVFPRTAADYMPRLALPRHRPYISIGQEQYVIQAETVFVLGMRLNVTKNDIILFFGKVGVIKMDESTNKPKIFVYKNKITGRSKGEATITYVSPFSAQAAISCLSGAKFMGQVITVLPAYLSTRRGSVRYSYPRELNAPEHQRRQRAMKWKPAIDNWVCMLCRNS

RBM3 (Homo sapiens) = target: T5, RBM3 (Homo sapiens) (UniProt P98179)
T5 sequence: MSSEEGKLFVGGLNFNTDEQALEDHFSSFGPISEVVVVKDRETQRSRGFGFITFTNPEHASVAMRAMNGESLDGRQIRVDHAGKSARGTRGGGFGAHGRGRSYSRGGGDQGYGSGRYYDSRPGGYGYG

Rbm38 (Mus musculus) = target: T6, Rbm38 (Mus musculus) (UniProt Q62176)
T6 sequence: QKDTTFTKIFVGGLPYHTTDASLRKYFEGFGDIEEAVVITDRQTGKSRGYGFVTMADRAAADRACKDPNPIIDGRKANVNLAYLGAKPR

SAMD4A (Homo sapiens) = target: T7, SAMD4A (Homo sapiens) (UniProt Q9UPU9)
T7 sequence: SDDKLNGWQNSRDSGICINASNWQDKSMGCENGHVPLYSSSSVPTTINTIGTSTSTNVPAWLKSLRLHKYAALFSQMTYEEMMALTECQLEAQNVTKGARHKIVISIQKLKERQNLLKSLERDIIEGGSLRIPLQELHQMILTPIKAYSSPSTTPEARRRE

SRSF9 (Homo sapiens) = SRSF9 (Homo sapiens) (UniProt Q13242)
Chain of SRSF9 (Homo sapiens) (Q13242 whole entry): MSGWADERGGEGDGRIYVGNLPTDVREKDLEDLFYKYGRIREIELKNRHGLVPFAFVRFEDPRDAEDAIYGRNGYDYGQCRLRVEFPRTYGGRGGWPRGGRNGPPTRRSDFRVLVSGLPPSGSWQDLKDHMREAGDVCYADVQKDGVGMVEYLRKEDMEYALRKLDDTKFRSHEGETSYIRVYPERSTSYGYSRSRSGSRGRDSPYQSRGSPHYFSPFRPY

PABPC4 (Homo sapiens) = PABPC4 (Homo sapiens) (UniProt Q13310)
Chain of PABPC4 (Homo sapiens) (Q13310 1-414): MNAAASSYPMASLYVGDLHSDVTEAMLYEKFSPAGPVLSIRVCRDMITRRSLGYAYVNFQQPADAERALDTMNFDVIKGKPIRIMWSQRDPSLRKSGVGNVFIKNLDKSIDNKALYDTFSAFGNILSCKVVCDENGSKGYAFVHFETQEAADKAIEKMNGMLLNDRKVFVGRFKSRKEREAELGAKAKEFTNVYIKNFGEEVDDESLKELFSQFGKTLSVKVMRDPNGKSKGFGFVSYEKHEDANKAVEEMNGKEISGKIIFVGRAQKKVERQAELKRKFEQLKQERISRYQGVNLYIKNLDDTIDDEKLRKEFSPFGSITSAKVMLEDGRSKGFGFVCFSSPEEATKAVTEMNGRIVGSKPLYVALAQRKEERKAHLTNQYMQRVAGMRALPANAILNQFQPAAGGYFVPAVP

RBM41 (Homo sapiens) = target: T8, RBM41 (Homo sapiens) (UniProt Q96IZ5)
T8 sequence: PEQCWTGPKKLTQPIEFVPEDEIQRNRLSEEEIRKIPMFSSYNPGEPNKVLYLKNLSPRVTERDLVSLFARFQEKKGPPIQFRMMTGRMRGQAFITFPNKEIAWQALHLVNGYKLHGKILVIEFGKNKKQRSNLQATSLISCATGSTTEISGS

RBMS3 (Homo sapiens) = target: T9, RBMS3 (Homo sapiens) (UniProt Q6XE24)
T9 sequence: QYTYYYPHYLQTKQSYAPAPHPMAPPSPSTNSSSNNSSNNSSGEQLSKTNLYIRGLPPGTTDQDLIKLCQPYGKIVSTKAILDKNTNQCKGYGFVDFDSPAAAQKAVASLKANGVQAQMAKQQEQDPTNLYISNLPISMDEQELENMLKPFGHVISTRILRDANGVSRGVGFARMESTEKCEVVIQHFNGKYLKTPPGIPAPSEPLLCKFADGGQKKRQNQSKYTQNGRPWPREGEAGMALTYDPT

RBM5 (Homo sapiens) = RBM5 (Homo sapiens) (UniProt P52756)
Chain of RBM5 (Homo sapiens) (P52756 1-546): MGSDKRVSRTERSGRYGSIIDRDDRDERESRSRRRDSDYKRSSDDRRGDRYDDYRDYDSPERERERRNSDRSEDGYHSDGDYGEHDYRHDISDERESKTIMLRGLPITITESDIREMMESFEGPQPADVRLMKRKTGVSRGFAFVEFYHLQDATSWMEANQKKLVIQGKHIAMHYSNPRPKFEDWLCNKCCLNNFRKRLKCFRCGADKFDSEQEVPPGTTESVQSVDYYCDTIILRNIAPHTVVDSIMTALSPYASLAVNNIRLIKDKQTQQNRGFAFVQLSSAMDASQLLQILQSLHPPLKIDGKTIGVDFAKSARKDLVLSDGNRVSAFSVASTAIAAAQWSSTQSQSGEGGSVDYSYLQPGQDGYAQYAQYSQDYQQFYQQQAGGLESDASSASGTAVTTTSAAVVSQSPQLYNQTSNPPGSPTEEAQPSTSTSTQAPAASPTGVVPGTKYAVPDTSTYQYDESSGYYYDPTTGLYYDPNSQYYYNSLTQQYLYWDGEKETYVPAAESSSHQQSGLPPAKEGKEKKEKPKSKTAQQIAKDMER

SART3 (Homo sapiens) = target: T10, SART3 (Homo sapiens) (UniProt Q15020)
T10 sequence: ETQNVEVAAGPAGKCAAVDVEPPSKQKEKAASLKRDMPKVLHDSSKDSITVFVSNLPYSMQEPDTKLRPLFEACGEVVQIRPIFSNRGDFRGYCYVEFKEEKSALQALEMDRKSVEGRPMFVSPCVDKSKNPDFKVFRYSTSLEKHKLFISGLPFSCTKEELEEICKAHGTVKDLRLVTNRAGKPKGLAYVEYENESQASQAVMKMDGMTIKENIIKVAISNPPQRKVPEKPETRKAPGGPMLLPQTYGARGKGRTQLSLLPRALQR

Khdrbs1 (Mus musculus) = Khdrbs1 (Mus musculus) (UniProt Q60749)
Chain of Khdrbs1 (Mus musculus) (Q60749 3-443): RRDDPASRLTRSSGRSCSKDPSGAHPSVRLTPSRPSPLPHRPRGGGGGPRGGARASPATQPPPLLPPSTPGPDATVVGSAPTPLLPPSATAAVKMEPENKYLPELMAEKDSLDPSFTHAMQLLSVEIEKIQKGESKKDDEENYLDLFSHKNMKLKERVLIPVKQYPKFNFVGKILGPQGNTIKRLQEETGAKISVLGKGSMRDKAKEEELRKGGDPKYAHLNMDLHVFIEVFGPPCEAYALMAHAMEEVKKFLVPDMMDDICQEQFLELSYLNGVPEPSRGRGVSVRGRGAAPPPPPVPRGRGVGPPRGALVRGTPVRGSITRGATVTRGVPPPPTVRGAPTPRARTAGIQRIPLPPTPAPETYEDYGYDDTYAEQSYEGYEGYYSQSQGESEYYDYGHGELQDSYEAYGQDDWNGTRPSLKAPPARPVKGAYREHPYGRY

[4] = target: T11, tiar-3 (Caenorhabditis elegans) (UniProt Q93194)
T11 sequence: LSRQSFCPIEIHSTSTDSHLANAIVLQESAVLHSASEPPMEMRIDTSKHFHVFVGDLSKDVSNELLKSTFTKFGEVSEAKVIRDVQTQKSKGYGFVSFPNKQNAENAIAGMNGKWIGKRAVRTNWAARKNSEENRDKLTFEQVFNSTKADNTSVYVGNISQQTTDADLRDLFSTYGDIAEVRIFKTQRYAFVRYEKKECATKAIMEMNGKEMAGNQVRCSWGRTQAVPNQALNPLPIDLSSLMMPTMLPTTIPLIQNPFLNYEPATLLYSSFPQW

[5] = target: T12, Rsf1 (Drosophila melanogaster) (UniProt Q24491)
T12 sequence: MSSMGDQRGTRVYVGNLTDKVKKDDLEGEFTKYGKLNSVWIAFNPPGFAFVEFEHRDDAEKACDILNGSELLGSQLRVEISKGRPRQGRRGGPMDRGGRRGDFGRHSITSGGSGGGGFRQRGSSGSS

RBM4 (Homo sapiens) = target: T13, RBM4 (Homo sapiens) (UniProt Q9BWF3)
T13 sequence: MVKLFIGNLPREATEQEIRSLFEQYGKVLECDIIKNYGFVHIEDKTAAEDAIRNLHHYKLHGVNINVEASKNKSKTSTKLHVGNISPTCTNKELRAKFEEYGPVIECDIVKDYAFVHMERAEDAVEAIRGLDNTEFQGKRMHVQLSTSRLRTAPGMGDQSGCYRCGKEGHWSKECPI

RBM46 (Homo sapiens) = target: T14, RBM46 (Homo sapiens) (UniProt Q8TBY0)
T14 sequence: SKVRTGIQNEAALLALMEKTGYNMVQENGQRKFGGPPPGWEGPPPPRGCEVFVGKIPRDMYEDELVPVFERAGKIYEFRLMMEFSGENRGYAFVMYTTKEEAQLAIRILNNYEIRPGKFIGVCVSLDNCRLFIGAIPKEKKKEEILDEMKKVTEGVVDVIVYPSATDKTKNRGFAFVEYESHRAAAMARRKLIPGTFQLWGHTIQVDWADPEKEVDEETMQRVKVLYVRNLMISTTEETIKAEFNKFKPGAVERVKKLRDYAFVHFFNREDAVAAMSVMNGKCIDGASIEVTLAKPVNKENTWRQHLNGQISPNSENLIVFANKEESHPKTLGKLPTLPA

[6] = target: T15, SF2 (Drosophila melanogaster) (UniProt Q7KJ21)
T15 sequence: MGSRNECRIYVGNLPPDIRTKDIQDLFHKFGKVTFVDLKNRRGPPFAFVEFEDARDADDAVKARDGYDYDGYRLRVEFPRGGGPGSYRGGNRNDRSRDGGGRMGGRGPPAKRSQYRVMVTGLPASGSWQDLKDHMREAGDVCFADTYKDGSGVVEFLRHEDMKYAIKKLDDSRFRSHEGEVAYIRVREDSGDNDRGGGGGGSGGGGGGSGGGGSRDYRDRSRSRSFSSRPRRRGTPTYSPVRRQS

[7] = target: T16, shep (Drosophila melanogaster) (UniProt Q8MSV2)
T16 sequence: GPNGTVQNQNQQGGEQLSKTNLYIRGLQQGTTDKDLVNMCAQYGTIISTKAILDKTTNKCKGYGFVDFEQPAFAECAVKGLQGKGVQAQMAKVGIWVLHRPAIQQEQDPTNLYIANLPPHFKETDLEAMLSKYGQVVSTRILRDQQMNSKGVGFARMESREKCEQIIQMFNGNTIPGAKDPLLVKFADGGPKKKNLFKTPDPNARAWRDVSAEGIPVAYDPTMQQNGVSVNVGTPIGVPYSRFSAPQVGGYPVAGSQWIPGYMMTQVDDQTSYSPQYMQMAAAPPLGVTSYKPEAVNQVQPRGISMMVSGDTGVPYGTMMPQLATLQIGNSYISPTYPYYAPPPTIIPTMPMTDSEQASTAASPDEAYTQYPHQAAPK

RBM28 (Homo sapiens) = target: T17, RBM28 (Homo sapiens) (UniProt Q9NW13)
T17 sequence: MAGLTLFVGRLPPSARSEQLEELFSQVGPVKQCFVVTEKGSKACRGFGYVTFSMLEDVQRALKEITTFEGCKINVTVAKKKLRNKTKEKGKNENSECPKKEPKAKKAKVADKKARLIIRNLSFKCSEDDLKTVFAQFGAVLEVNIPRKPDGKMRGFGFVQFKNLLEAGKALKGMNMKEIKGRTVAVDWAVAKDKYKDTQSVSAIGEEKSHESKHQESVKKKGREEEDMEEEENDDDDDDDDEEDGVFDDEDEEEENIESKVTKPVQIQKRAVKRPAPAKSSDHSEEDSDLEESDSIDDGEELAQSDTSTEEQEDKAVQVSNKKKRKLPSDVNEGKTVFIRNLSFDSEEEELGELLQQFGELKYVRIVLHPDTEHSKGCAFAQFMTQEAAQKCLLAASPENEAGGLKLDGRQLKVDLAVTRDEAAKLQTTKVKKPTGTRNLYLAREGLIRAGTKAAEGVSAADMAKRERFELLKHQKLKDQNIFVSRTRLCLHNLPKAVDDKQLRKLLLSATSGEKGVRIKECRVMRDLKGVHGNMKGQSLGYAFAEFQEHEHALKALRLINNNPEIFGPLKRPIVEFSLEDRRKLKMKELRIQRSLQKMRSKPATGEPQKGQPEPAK

[8] = target: T18, pum (Drosophila melanogaster) (UniProt P25822)
T18 sequence: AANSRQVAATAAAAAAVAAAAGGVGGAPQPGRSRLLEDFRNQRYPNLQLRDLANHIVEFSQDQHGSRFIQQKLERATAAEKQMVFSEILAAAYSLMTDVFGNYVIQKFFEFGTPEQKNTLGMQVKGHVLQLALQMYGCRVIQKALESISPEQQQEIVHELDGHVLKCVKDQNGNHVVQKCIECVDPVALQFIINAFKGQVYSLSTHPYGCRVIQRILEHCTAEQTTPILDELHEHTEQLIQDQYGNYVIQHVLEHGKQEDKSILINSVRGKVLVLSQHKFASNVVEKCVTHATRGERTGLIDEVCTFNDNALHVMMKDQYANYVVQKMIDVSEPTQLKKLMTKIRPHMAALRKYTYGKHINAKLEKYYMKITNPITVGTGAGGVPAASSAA

For ACAACG [RNAcompete motif RNCMPT00058], the binding signal (z-score (mean of top ten 7-mers)) [1] is listed as 9.03.

In the case of UCUNAU [RNAcompete motif RNCMPT00065], the binding signal (z-score (mean of top ten 7-mers)) [2] is given as 9.28.

In the case of ACUAACC [RNAcompete motif RNCMPT00047], the binding signal (z-score (mean of top ten 7-mers)) (QKI (Homo sapiens)) is listed as 6.41.

For CCAGAUG [RNAcompete motif RNCMPT00006], the binding signal (z-score (mean of top ten 7-mers)) [3] is listed as 11.9.

In the case of AGAUAC [RNAcompete motif RNCMPT00050], the binding signal (z-score (mean of top ten 7-mers)) (RBM3 (Homo sapiens)) is listed as 7.1.

In the case of UUUNUGU [RNAcompete motif RNCMPT00051], the binding signal (z-score (mean of top ten 7-mers)) (Rbm38 (Mus musculus)) is listed as 17.

For GCUGGNC [RNAcompete motif RNCMPT00063], the binding signal (z-score (mean of top ten 7-mers)) (SAMD4A (Homo sapiens)) is given as 15.9.

In the case of AUGGA [RNAcompete motif RNCMPT00067], the binding signal (z-score (mean of top ten 7-mers)) (SRSF9 (Homo sapiens)) is listed as 6.71.

For AAAAAA [RNAcompete motif RNCMPT00043], the binding signal (z-score (mean of top ten 7-mers)) (PABPC4 (Homo sapiens)) is given as 12.2.

For AUACAU [RNAcompete motif RNCMPT00053], the binding signal (z-score (mean of top ten 7-mers)) (RBM41 (Homo sapiens)) is given as 10.7.

For UAUAUA [RNAcompete motif RNCMPT00173], the binding signal (z-score (mean of top ten 7-mers)) (RBMS3 (Homo sapiens)) is listed as 8.57.

In the case of GAAGGNA [RNAcompete motif RNCMPT00055], the binding signal (z-score (mean of top ten 7-mers)) (RBM5 (Homo sapiens)) is given as 6.04.

For GAAAAA [RNAcompete motif RNCMPT00064], the binding signal (z-score (mean of top ten 7-mers)) (SART3 (Homo sapiens)) is listed as 11.1.

In the case of UAAAAG [RNAcompete motif RNCMPT00062], the binding signal (z-score (mean of top ten 7-mers)) (Khdrbs1 (Mus musculus)) is given as 7.39.

For UUUUUU [RNAcompete motif RNCMPT00005], the binding signal (z-score (mean of top ten 7-mers)) [4] is given as 11.

In the case of ACGACGA [RNAcompete motif RNCMPT00061], the binding signal (z-score (mean of top ten 7-mers)) [5] is listed as 10.6.

In the case of CGCGCG [RNAcompete motif RNCMPT00113], the binding signal (z-score (mean of top ten 7-mers)) (RBM4 (Homo sapiens)) is listed as 17.7.

In the case of AAUCAA [RNAcompete motif RNCMPT00054], the binding signal (z-score (mean of top ten 7-mers)) (RBM46 (Homo sapiens)) is given as 8.4.

In the case of GGAGGA [RNAcompete motif RNCMPT00066], the binding signal (z-score (mean of top ten 7-mers)) [6] is given as 14.1.

In the case of UAUAUUA [RNAcompete motif RNCMPT00175], the binding signal (z-score (mean of top ten 7-mers)) [7] is listed as 7.37.

For GAGUAG [RNAcompete motif RNCMPT00049], the binding signal (z-score (mean of top ten 7-mers)) (RBM28 (Homo sapiens)) is given as 7.8.

In the case of UGUACAU [RNAcompete motif RNCMPT00046], the binding signal (z-score (mean of top ten 7-mers)) [8] is given as 28.5.
